# Results published in article PMC3294146.
# Columns and labels:
# [1] = target: Co-hArgI-C^PEG-20K (hArgI-C conjugated at the N-terminal Cys to 20 KDa PEG-maleimide) (human); assay: SEC
# [2] = target: human Arginase I with an engineered N-terminal Cys residue (hArgI-C), not PEGylated (human); assay: SEC
stoichiometry N [1],percent dimeric [2] [%],percent monomeric [2] [%],Substance
3,,,Co-hArgI-C^PEG-20K (hArgI-C conjugated at the N-terminal Cys to 20 KDa PEG-maleimide) (enzyme)
,10,90,"human Arginase I with an engineered N-terminal Cys residue (hArgI-C), not PEGylated (enzyme)"
